Laboratory results as given in publication PMC10303687.

Molecular target: MDM2_(D. rerio) SWIB domain (zebra fish (Danio rerio))
Assay: stopped-flow fluorescence kinetics; 10°C, 20 mM sodium phosphate pH 7.4, 150 mM NaCl, 1 mM TCEP; Trp23 emission; MDM2 constant at 0.5–2 μM, p53TAD varied 1–10 μM for k on; k off from displacement of the 1 μM:1 μM complex by 10–20 μM dansylated human p53TAD peptide; K D = k off/k on

Going from p73TAD_(D. rerio) (peptide) to p53TAD_(D. rerio)^14–27 (peptide), the Kd rises from 120 nM to 1900 nM (16-fold). The first binds more tightly here.

For p53TAD_(D. rerio)^N26L (peptide), the Kd was 340 nM.

Compared with p73TAD_(D. rerio) (peptide), p53TAD_(D. rerio)^14–27 (peptide) is 8.4-fold higher in koff: 3.7 s⁻¹ for the first, 31 s⁻¹ for the second.

Work on p53TAD_(D. rerio)^N26L (peptide) yielded a koff of 5.2 s⁻¹.

First: p73TAD_(D. rerio) (peptide)
Second: p53TAD_(D. rerio)^14–27 (peptide)
The kon of the first is 2-fold higher: 3.2e+07 M⁻¹ s⁻¹ for the first, 1.59e+07 M⁻¹ s⁻¹ for the second.

p53TAD_(D. rerio)^N26L (peptide) showed a kon of 1.55e+07 M⁻¹ s⁻¹.
